From US20100028352A1

Biological target: Gi-GPCRs on endothelial cells
Test: cell-based or functional assay

Q: With “Full-length recombinant human GlyRS (from UniProt P41250 55-739) (enzyme)” as the substance, how does the inhibition of forskolin-stimulated cAMP production, 25 and 100 nM uncleaved GlyRS read?
A: 10%
